According to US20240293499A1:

Legend:
[1] = target: T1, murine VISTA on mouse splenocytes (macrophages, neutrophils, CD4+ T cells) (mouse) (UniProt Q9D659); assay: cell-based or functional assay
T1 sequence (looked up): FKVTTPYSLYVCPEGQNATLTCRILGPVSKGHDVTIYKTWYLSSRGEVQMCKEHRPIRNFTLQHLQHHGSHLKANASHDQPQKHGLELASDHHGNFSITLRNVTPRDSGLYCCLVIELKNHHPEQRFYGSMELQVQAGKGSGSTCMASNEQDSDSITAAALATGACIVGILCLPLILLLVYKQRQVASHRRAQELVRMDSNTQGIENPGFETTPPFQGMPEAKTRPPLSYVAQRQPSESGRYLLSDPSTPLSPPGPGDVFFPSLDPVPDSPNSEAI

[2] = target: hVISTA-COMP-his, pentameric form comprising the extracellular IgV domain of human VISTA (human) (UniProt Q9H7M9); assay: SPR (BIAcore T200), single-cycle kinetics; hVISTA-COMP-his captured on anti-His chip, mAb as analyte; 1:1 Langmuir fit
[3] = target: T2, mVISTA-COMP-his, pentameric form comprising the extracellular IgV domain of murine VISTA (mouse) (UniProt Q9D659); assay: SPR (BIAcore T200), single-cycle kinetics; mVISTA-COMP-his captured on anti-His chip, mAb as analyte; 1:1 Langmuir fit
T2 sequence (Q9D659 whole entry, looked up): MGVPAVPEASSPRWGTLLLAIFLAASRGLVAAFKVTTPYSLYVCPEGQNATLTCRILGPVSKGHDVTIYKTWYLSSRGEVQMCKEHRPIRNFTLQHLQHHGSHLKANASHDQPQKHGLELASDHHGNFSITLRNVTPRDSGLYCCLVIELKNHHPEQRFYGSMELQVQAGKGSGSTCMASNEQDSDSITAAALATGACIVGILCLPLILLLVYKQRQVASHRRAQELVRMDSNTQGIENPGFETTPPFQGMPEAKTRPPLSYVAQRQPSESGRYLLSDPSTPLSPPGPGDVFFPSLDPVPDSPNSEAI

[4] = target: hVISTA-COMP-his, pentameric form comprising the extracellular IgV domain of human VISTA (human) (UniProt Q9H7M9); assay: SPR (BIAcore T200), single-cycle kinetics, hVISTA-COMP-his captured on anti-His chip, mAb injected at 20, 40, 80, 160, 320 nM, 1:1 fit
[5] = target: T2, mVISTA-COMP-his, pentameric form comprising the extracellular IgV domain of murine VISTA (mouse); assay: SPR (BIAcore T200), single-cycle kinetics, mVISTA-COMP-his captured on anti-His chip, mAb injected at 20, 40, 80, 160, 320 nM, 1:1 fit

Sequence of hVISTA-COMP-his, pentameric form comprising the extracellular IgV domain of human VISTA (human) (Q9H7M9 33-194): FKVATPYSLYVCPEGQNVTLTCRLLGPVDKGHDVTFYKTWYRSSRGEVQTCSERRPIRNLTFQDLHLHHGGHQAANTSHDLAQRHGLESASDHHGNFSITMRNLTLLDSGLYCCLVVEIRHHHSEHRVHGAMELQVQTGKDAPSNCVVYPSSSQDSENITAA

B1: rat anti-hmVISTA mAb 7C6 (antibody, part only; not given: light chain, rat IgG2a, V domains shown, part only)
VH: QVQLQQSGAELAKPGSSVKISCKASGYTFTSYYISWIKQTTGQGLEYIGYINTGSGGTNYNEKFKGKATLTVDKSSSTAFMQLSSLTPDDSAVYYCAREGTFYSGDVGYWYFDFWGPGSMVTVSS
- reduction of proliferation of ConA-stimulated CD4+ T cells, mouse splenocytes [1]: 4%
- Kd [2]: 840 nM
- Kd [3]: 3 nM
- Kd [4]: 838 nM
- koff [4]: 0.000331 s⁻¹
- kon [4]: 395 M⁻¹ s⁻¹
- Kd [5]: 3 nM
- koff [5]: 0.000177 s⁻¹
- kon [5]: 59000 M⁻¹ s⁻¹
